One molecule from paper PMC2680285 can be followed below.

“And” between values parts separate entries of the source, which are not always exact repeats. Identical values can stand only once.

In the experiment the target is T1, wild-type GADD45α (growth arrest- and DNA damage-induced gene 45α), C-terminally myc-tagged (human), P24522.
T1 chain: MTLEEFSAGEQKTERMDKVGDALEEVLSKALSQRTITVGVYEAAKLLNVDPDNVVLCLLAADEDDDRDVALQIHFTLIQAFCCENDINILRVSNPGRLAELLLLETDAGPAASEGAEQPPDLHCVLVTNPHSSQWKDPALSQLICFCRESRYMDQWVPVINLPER
The experiment in a line: native gel or EMSA. To be noted: remark: other sources report otherwise.

B1: wild-type GADD45α (growth arrest- and DNA damage-induced gene 45α), C-terminally myc-tagged, P24522 1-165 (natural protein)
chain: MTLEEFSAGEQKTERMDKVGDALEEVLSKALSQRTITVGVYEAAKLLNVDPDNVVLCLLAADEDDDRDVALQIHFTLIQAFCCENDINILRVSNPGRLAELLLLETDAGPAASEGAEQPPDLHCVLVTNPHSSQWKDPALSQLICFCRESRYMDQWVPVINLPER
Regarding B1, the stoichiometry N is 3 and 4.

The term stoichiometry N denotes the number of molecules, sites or subunits per partner or assembly.
